# Measured values from US9580487B2, “Method of treating stomach or bowel-related disorders by administering glucagon-like-peptide-2 (GLP-2) analogues” (Zealand Pharma A/S, priority 2005, dated 2017).
# Legend:
# [1] = Chemical stability testing: incubation in HCl, NaOH, H2O2 or NH4HCO3 at 40° C., remaining purity by RP-HPLC; assay type: physicochemical; conditions: 40° C., 2 mg/ml, relative to the purity at T=0
# Experimental: The GLP-2 analogues were dissolved in purified water and subsequently diluted in solutions containing HCl, NaOH, H2O2 or NH4HCO3. The solutions were incubated at 40° C. to produce hydrolysis, deamidation and oxidation products. The samples were analyzed by RP-HPLC and the percentage of remaining intact compound was determined as a measure for the relative stability. The major degradation products were tentatively identified by LC-MS.
# The GLP-2 analogues tested and the reference Gly^2-GLP-2, ZP1559 (SEQ ID NO:54), were dissolved in water and subsequently diluted into solutions containing HCl, NaOH, H2O2 or NH4HCO3. The samples were incubated at 40° C. to generate hydrolysis, deamidation and oxidation products, respectively. The compounds were analysed by RP-HPLC for purity of the original main peak and by LC-MS for confirmation of the identity by mass of the main peak and major degradation products.
# The GLP-2 analogues were first dissolved in MQW to a concentration of 4 mg/ml and then further diluted in the stress solutions at a 1:1 ratio (e.g. 125 μl plus 125 μl). The final concentrations were 2 mg/ml of the GLP-2 analogues for stress conditions with 0.1 M HCl, 0.01M NaOH, 0.1 M NH4HCO3 and 0.5% H2O2, respectively.
# The solutions were incubated at 40° C. in the dark and then diluted in Eluent A to a concentration of 0.5 mg/ml (addition of 750 μl) prior to analyses by RP-HPLC and by LC-MS.
# The RP-HPLC analyses were performed on an Agilent Series 1100 HPLC system under control of the ChemStation (Revision A.08.03 [847]) software from Agilent Technologies, Inc. The raw data and the results of the peak integration were deposited on the ChemStore C/S server by the use of Agilent Technologies Revision B01.03 software.
# The results are shown in Table 9 as the compound purity measured by RP-HPLC after incubation under stress conditions. This purity is a measure for the remaining intact compound after incubation in stress solutions, relative to the purity measured a T=0.
# [2] = Tentative identification of major degradation products in stress test samples by LC-MS; assay type: physicochemical; conditions: 3 days at 40° C. in 0.5% H2O2
# Experimental: Analytical LC-MS analyses were performed on an Agilent Technologies 1100 HPLC instrument consisting of an on-line degasser, quaternary gradient pump, an auto sampler, a column oven, an UV detector. The HPLC instrument was interfaced with a Micromass LCT (ESI-TOF) mass spectrometer under control of Masslynx 3.5 software, from MicroMass, UK.
# Major degradation products in the stress test samples were tentatively identified by the LC-MS method. Any isomers to the parent compounds and minor degradation products were not observed by this analytical LC-MS method.
# [3] = system: male C57BL mice; assay: Dose-response effect on intestinal growth (SI mass, SI-Colon Sensitivity Index, colon and stomach mass); assay type: in vivo; conditions: 5-405 nmol/kg s.c. b.i.d. for three days, vs vehicle
# Experimental: Values are means±SEM. *: P<0.05 relative to the equimolar dose of [Gly2]GLP-2 (SEQ ID NO:54).
# FIG. 2 is a set of graphs showing full dose-response data of four small intestine selective compounds (compound nos. 1846 (SEQ ID NO:34), 1855 (SEQ ID NO:43), 1848 (SEQ ID NO:36), 1858 (SEQ ID NO:46)) on the Small Intestine (SI)-to-Colon Sensitivity Index mice relative to the non-selective reference compound [Gly2]GLP-2 (SEQ ID NO:54). Compounds were administered by subcutaneous injection b.i.d. for three days in C57BL mice at the following doses: 0 (vehicle), 5, 15, 45, 135, 405 nmol/kg (n=6/dose group). Responses at each dose level were compared with responses obtained at the same dose level in pair-treated mice treated with the non-selective reference compound [Gly2]GLP-2 (SEQ ID NO:54). The SI-Colon Sensitivity Index was calculated as SI-mass relative to colon mass and the Sensitivity Index at each dose level was normalized to the response observed with the non-selective reference compound [Gly2]GLP-2 (SEQ ID NO:54). […] Values are means±SEM. *: P<0.05 relative to the equimolar dose of [Gly2]GLP-2.
# FIG. 4 is a set of graphs showing full dose-response data of three small intestine selective compounds (compound nos. 1857 (SEQ ID NO:45), 1820 (SEQ ID NO:10), and 1849 (SEQ ID NO:37)) on the Small Intestine (SI)-to-Colon Sensitivity Index mice relative to the non-selective reference compound [Gly2]GLP-2 (SEQ ID NO:54). Compounds were administered by subcutaneous injection b.i.d. for three days in C57BL mice at the following doses: 0 (vehicle), 5, 15, 45, 135, 405 nmol/kg (n=6/dose group). Responses at each dose level were compared with responses obtained at the same dose level in pair-treated mice treated with the non-selective reference compound [Gly2]GLP-2 (SEQ ID NO:54). The SI-Colon Sensitivity Index was calculated as SI-mass relative to colon mass and the Sensitivity Index at each dose level was normalized to the response observed with the non-selective reference compound [Gly2]GLP-2 (SEQ ID NO:54). […] Values are means±SEM. *: P<0.05 relative to the equimolar dose of [Gly2]GLP-2 (SEQ ID NO:54).
# Compounds were administered by subcutaneous injection b.i.d. for three days in C57BL mice at the following doses: 0 (vehicle), 5, 15, 45, 135, 405 nmol/kg (n=6/dose group). […] Values are means±SEM. *: P<0.05 relative to the vehicle.
# The dose-response effect of 1820 (SEQ ID NO:10), 1855 (SEQ ID NO:43), ZP1846 (SEQ ID NO:34), 1858 (SEQ ID NO:46), 1849 (SEQ ID NO:37), 1848 (SEQ ID NO:36), and 1857 (SEQ ID NO:45) on small intestinal mass was determined in male C57BL mice. Individual groups (n=6) of mice were given 5, 15, 45, 135 or 405 nmol/kg of each compound, s.c, twice daily for three consecutive days. For comparison purposes other groups of animals were given either equimolar doses of [Gly2]GLP-2 (SEQ ID NO:54) or vehicle (phosphate buffered saline, pH 7.4) in the same dosing regimen. Twenty-four hours after the last dose of compound had been given the mice were sacrificed and the small intestine (from the pylorus to the cecum emptied and weighed to determine the effect on small intestinal mass.
# [4] = system: colonic neoplasms in mice; conditions: cited from earlier work
# [5] = system: male C57BL mice; assay: Screening for intestinal growth effects (small intestine and colon mass relative to body weight, small intestine-colon sensitivity index); assay type: in vivo
# Experimental: The ability of the present compounds to stimulate intestinal growth was determined in male C57BL mice. Individual groups (n=6) of mice were given 30 nmol/kg of each compound, s.c, twice daily for ten consecutive days. For comparison purposes other groups of animals were given either an equimolar dose of [Gly2]GLP-2 (SEQ ID NO:54) or vehicle (phosphate buffered saline, pH 7.4) in the same dosing regimen. Twenty-four hours after the last dose of compound had been given the mice were sacrificed and the small intestine (from the pylorus to the cecum) and the colon (intestine distal to cecum) was emptied and weighed. To correct for slight difference in body weight (BW), the organ mass of the small intestine (SI) and colon were expressed relative to BW. The non-selective reference compound [Gly2]GLP-2 (SEQ ID NO:54) has been reported to stimulate gastrointestinal growth in both esophagus, stomach, small intestine and colon and to evaluate differences in growth pattern induced by compounds, the small intestine-colon sensitivity index of compound X was calculated as:
# (SI/Colon)X/(SI/Colon)[Gly2]GLP-2%
# Compounds with a small intestine-colon sensitivity greater than or equal to 1.05 were considered relatively selective for the small intestine (Table 15).
# Compounds with a small intestine-colon sensitivity smaller than or equal to 0.95 were considered relatively selective for the colon (Table 15).
substance,measurement,setting,value
"H-[Gly2]hGLP-2-OH [Compound 1559, reference compound]",Purity H2O2 0.5% 3 days,[1]; RP-HPLC,<5%
same,Purity HCl 0.1M 12 days,[1]; RP-HPLC,57%
same,Purity NH4HCO3 0.1M 6 days,"[1]; pH 8, RP-HPLC",66%
same,Intact product found by LC-MS after H2O2 stress,[2],No product intact
same,"Growth stimulation of small intestine, colon and stomach mass",[3],"produced dose-dependent growth stimulation in small intestine, colon and stomach"
same,Growth of colonic neoplasms,[4],accelerate the growth of colonic neoplasms in mice
same,Preferential growth of small intestine versus colon (small intestine-colon sensitivity),"[5]; 30 nmol/kg s.c. twice daily, ten days, relative to [Gly2]GLP-2",without preferential growth in small intestine or colon
same,"colon mass relative to body weight, % [Gly2]GLP-2","[5]; male C57BL mice, 30 nmol/kg s.c. twice daily for ten days",100 % [Gly2]GLP-2
same,"small intestine-colon sensitivity index, (SI/Colon)X/(SI/Colon)[Gly2]GLP-2 %","[5]; male C57BL mice, 30 nmol/kg s.c. twice daily for ten days, third value column",100 % [Gly2]GLP-2
